In patent US20250388669A1 (published 2025):

Target: T1, B7H3 (human, UniProt Q5ZPR3 29-466, limits assumed)
T1 sequence (looked up): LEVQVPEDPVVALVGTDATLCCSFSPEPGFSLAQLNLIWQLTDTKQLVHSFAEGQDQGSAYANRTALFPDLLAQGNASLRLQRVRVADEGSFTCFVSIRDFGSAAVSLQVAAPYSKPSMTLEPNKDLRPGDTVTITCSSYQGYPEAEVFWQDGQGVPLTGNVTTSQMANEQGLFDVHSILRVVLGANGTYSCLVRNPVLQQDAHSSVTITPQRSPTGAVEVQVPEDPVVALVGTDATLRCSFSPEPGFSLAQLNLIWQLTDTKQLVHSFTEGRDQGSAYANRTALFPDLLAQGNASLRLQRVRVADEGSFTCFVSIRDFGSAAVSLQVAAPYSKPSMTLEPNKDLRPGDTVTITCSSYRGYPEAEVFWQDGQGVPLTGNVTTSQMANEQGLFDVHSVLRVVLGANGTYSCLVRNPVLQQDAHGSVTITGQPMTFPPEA
Test: ELISA or FCM (Example 2)

B1: Ly2365 (other)
chain 1: QVQLVQSGAEVKKPGASVKVSCKASGYTFTSYVMHWVRQKPGQGLEWIGYINPYNEGTESTDKFKGRATMTSDKSTSTVYMELSSLRSEDTAVYYCASIYYGYEGTYFGVWGQGTLVTVSSASTKGPSVFPLAPSSKSTSGGTAALGCLVKDYFPEPVTVSWNSGALTSGVHTFPAVLQSSGLYSLSSVVTVPSSSLGTQTYICNVNHKPSNTKVDKKVEPKSCGGGGSGGGGSGGGGSEVQLVESGGGLVQPGGSLRLSCAASGFTFSTYAMNWVRQAPGKGLEWVGRIRSKYNNYATYYADSVKGRFTISRDDSKNSLYLQMNSLKTEDTAVYYCVRHGNFGNSYVSWFAYWGQGTLVTVSSGGGGSDKTHTCPPCPAPEAAGPSVFLFPPKPKDTLMISRTPEVTCVVVDVSHEDPEVKFNWYVDGVEVHNAKTKPREEQYNSTYRVVSVLTVLHQDWLNGKEYKCKVSNKALPAPIEKTISKAKGQPREPQVYTLPPSREEMTKNQVSLWCLVKGFYPSDIAVEWESNGQPENNYKTTPPVLDSDGSFFLYSKLTVDKSRWQQGNVFSCSVMHEALHNHYTQKSLSLSPGGGGGSGGGGSGGGGSGGGGSQVQLVQSGAEVKKPGASVKVSCKASGYTFAGFEMHWVRQAPGQGLEWMGAIDPKTGGTDYNQKFKDRVTMTRDTSISTAYMELSRLRSDDTAVYYCARDLGYFDVWGQGTLVTVSS
chain 2: QVQLVQSGAEVKKPGASVKVSCKASGYTFTSYVMHWVRQKPGQGLEWIGYINPYNEGTESTDKFKGRATMTSDKSTSTVYMELSSLRSEDTAVYYCASIYYGYEGTYFGVWGQGTLVTVSSASTKGPSVFPLAPSSKSTSGGTAALGCLVKDYFPEPVTVSWNSGALTSGVHTFPAVLQSSGLYSLSSVVTVPSSSLGTQTYICNVNHKPSNTKVDKKVEPKSCGGGGSGGGGSGGGGSQAVVTQEPSLTVSPGGTVTLTCRSSTGAVTTSNYANWVQQKPGQAPRGLIGGTNKRAPWTPARFSGSLLGGKAALTITGAQAEDEADYYCALWYSNLWVFGGGTKLTVLGGGGSDKTHTCPPCPAPEAAGPSVFLFPPKPKDTLMISRTPEVTCVVVDVSHEDPEVKFNWYVDGVEVHNAKTKPREEQYNSTYRVVSVLTVLHQDWLNGKEYKCKVSNKALPAPIEKTISKAKGQPREPQVYTLPPSREEMTKNQVSLSCAVKGFYPSDIAVEWESNGQPENNYKTTPPVLDSDGSFFLVSKLTVDKSRWQQGNVFSCSVMHEALHNRFTQKSLSLSPGGGGGSGGGGSGGGGSGGGGSDIQMTQSPSSLSASVGDRVTITCRASQDIRSNLNWYQQKPGGAVKLLIYYTSRLHSGVPSRFSGSGSGTDYTLTISSLQPEDFATYFCQQSEKLPRTFGGGTKVEIR
light: EIVLTQSPATLSLSPGERATLSCRASSSVSYMHWYQQKPGQAPRPWIYATSNLASGIPARFSGSRSGTDYTLTISSLEPEDFAVYYCQQWSSNTLTFGGGTKVEIKRTVAAPSVFIFPPSDEQLKSGTASVVCLLNNFYPREAKVQWKVDNALQSGNSQESVTEQDSKDSTYSLSSTLTLSKADYEKHKVYACEVTHQGLSSPVTKSFNRGEC
notes: Tri-specific antibody: B7H3 Fabs, central CD3 Fv, terminal CD137 Fv; Flexible linker is (G4S)3
- binding result: binds
